Measurements reported in patent publication US20250027068A1 (published 2025).
Substitutions are numbered along the chain they refer to.

Biological target: pooled human IgG (human)
Assay: cell-based or functional assay
Further: test concentration or dose not given here.

B1: PRT-206 (enzyme)
chain: MEVVEVWPYGQNPNGKTEILSQTEDSESLQRLRDIEDFQAEKKKENVVYTKWLDGVTVKDHDFRKIVDGNIAYYATPLLNGRGFYDINKDFNRDSDKCAAAVAANMFHYWLDINRDNVDRFLRQNPEKHGIIELPDGQLKLSDFLNTYESDDGYRDKSKLFDFISNNFNGPVWTDKLLDNYINGYGYNYKYGRTIEDPTKNTSKINFFKEVFNEKILTDNHSIRDQNEFSDLLSEALYTGKAIGLSYGPAGLRHSLGHIISVWGADLDADGNVVAIYVTDSDDKKLTIGDERVGLKRYKISYDDEGRARLTAYEEKDNTGGQIRGLYTLDTGKQAWADYFDKTEQTGTDQAEQLEHHHHHH
  Enzyme Activity Endpoint Assay (purified): Fab′2: 570 ng/µL
  Enzyme Activity Endpoint Assay (purified): Fc: 0 ng/µL
  Enzyme Activity Endpoint Assay (purified): IgG: 2130 ng/µL
  Enzyme Activity Endpoint Assay (purified): scIgG: 0 ng/µL

B2: PRT-196 (enzyme)
chain: MEVVEVWPYGQNPNGKTEILSQTEDSESLQRLRDIEDFQAEKKMQNVVYTKWLDGVDVKDHDFRKIVDGNIAYYATPLLNGRGFYDINKDFNRDSDKCAAAVAANMFHYWLDINRDNVDRFLRQNPEKHGIIELPDGQLKLSDFLNTYESDHGYRDKSKLFDFISNNFNGPVWTDKLLDNYINGYAYNYKYGRTIEDPTKNTSKINFFKEVFNEKILTNNHSIRNQNEFSVLLSEALYTGKAIGLSYGPAGLRHSLGHIISVWGADLDADGNVVAIYVTDSDDKKLTIGDERVGLKRYKISTDDENRLRLTAYEETHNTGGQIRGLWTLDTGKYAWADYFDKTEQTGTDQAEQLEHHHHHH
  Enzyme Activity Endpoint Assay (purified): Fab′2: 152 ng/µL
  Enzyme Activity Endpoint Assay (purified): Fc: 498 ng/µL
  Enzyme Activity Endpoint Assay (purified): IgG: 707 ng/µL
  Enzyme Activity Endpoint Assay (purified): scIgG: 504 ng/µL

B3: PRT-199 (enzyme)
chain: B2 chain with M44K, I113R, H152D, N306G, Y334Q
  Enzyme Activity Endpoint Assay (purified): Fab′2: 95 ng/µL
  Enzyme Activity Endpoint Assay (purified): Fc: 473 ng/µL
  Enzyme Activity Endpoint Assay (purified): IgG: 797 ng/µL
  Enzyme Activity Endpoint Assay (purified): scIgG: 544 ng/µL

B4: PRT-201 (enzyme)
chain: B2 chain with M44K, V67K, A72E, I113R, H152D, N306G, L308A, W327Y, Y334Q
  Enzyme Activity Endpoint Assay (purified): Fab′2: 0 ng/µL
  Enzyme Activity Endpoint Assay (purified): Fc: 0 ng/µL
  Enzyme Activity Endpoint Assay (purified): IgG: 2720 ng/µL
  Enzyme Activity Endpoint Assay (purified): scIgG: 0 ng/µL

B5: PRT-202 (enzyme)
chain: B2 chain with M44K, H152Y, E210K, N220I, V231D, N306G, H317D, Q322E, W327Y, Y334Q
  Enzyme Activity Endpoint Assay (purified): Fab′2: 25 ng/µL
  Enzyme Activity Endpoint Assay (purified): Fc: 402 ng/µL
  Enzyme Activity Endpoint Assay (purified): IgG: 1130 ng/µL
  Enzyme Activity Endpoint Assay (purified): scIgG: 553 ng/µL

B6: PRT-200 (enzyme)
chain: B2 chain with V231D, L308A, H317D, Y334Q
  Enzyme Activity Endpoint Assay (purified): Fab′2: 0 ng/µL
  Enzyme Activity Endpoint Assay (purified): Fc: 0 ng/µL
  Enzyme Activity Endpoint Assay (purified): IgG: 2510 ng/µL
  Enzyme Activity Endpoint Assay (purified): scIgG: 0 ng/µL

B7: PRT-204 (enzyme)
chain: B2 chain with D57T, I113R, R123S, H152N, N220I, V231D, N306G, L308A, H317D, W327E
  Enzyme Activity Endpoint Assay (purified): Fab′2: 0 ng/µL
  Enzyme Activity Endpoint Assay (purified): Fc: 0 ng/µL
  Enzyme Activity Endpoint Assay (purified): IgG: 2260 ng/µL
  Enzyme Activity Endpoint Assay (purified): scIgG: 0 ng/µL

B8: PRT-197 (enzyme)
chain: B2 chain with V231D, L308A, H317D, W327Y, Y334Q
  Enzyme Activity Endpoint Assay (purified): Fab′2: 0 ng/µL
  Enzyme Activity Endpoint Assay (purified): Fc: 179 ng/µL
  Enzyme Activity Endpoint Assay (purified): IgG: 1800 ng/µL
  Enzyme Activity Endpoint Assay (purified): scIgG: 121 ng/µL

B9: PRT-203 (enzyme)
chain: B2 chain with M44K, V67K, A72E, I113R, H152D, N306G, L308A, Y334Q
  Enzyme Activity Endpoint Assay (purified): Fab′2: 0 ng/µL
  Enzyme Activity Endpoint Assay (purified): Fc: 0 ng/µL
  Enzyme Activity Endpoint Assay (purified): IgG: 2130 ng/µL
  Enzyme Activity Endpoint Assay (purified): scIgG: 0 ng/µL

B10: PRT-198 (enzyme)
chain: B2 chain with M44K, N46G, V231D, W327Y, Y334Q
  Enzyme Activity Endpoint Assay (purified): Fab′2: 621 ng/µL
  Enzyme Activity Endpoint Assay (purified): Fc: 0 ng/µL
  Enzyme Activity Endpoint Assay (purified): IgG: 2320 ng/µL
  Enzyme Activity Endpoint Assay (purified): scIgG: 0 ng/µL

B11: PRT-194 (enzyme)
chain: MANQEIRYSEVTPYHVTSVWTKGVTPPDHDFANFTQGEDVFHAPYVANQGWYDITKTFNGKDDLLCGAATAGNMLHWWFDQNKDQIKRYLEEHPEKQKINFNGEQMFDVKEAIDTKNHQLDSKLFEYFKEKAFPYLSTKHLGVFPDHVIDMFINGYRLSLTNHGPTPVKEGSKDPRGGIFDAVFTRGDQSKLLTSRHDFKEKNLKEISDLIKKELTEGKALGLSHTYANVRHSINHVINLWGADFDSNGNLKAIYVTDSDDKKLTISNASIGMKKYFVGVNSAGKVAISAKEIKEDNIGAQVLGLFTLSTGQDSWNQTN
  Enzyme Activity Endpoint Assay (purified): Fab′2: 0 ng/µL
  Enzyme Activity Endpoint Assay (purified): Fc: 12 ng/µL
  Enzyme Activity Endpoint Assay (purified): IgG: 301 ng/µL
  Enzyme Activity Endpoint Assay (purified): scIgG: 0 ng/µL

B12: PRT-195 (enzyme)
chain: B11 chain with A32R, N33K, F34I, T35V, Q36D, S267G, N268D, A269E, S270R
  Enzyme Activity Endpoint Assay (purified): Fab′2: 0 ng/µL
  Enzyme Activity Endpoint Assay (purified): Fc: 30 ng/µL
  Enzyme Activity Endpoint Assay (purified): IgG: 829 ng/µL
  Enzyme Activity Endpoint Assay (purified): scIgG: 15 ng/µL

B13: PRT-205 (enzyme)
chain: MEVVEVWPYGQNPNGKTEILSQTEDSESLQRLRDIEDFQAEKKKEGVVYTKWLDGVDVDDHDFRKIVDGNIAYYATPLLNGRGFYDINKDFNRDSDKCAAAVAANMFHYWLDRNRDNVDRFLKQNPEKHGIIELPDGQLKLSDFLNTYESDNGYRDKSKLFDFISNNFNGPVWTDKLLDNYINGYAYNYKYGRTIEDPTKNTSKINFFKEVFNEKILTNNHSIRNYNTFSDLLSEALYTGKAIGLSYGPAGLRHSLGHIISVWGADLDADGNVVAIYVTDSDDKKLTIGDERVGLKRYKVSSDDENRLRLTAYEETHNTGGQIRGIYTLDTGKQAWADYFDKTEQTGTDQAEQLEHHHHHH
  Enzyme Activity Endpoint Assay (purified): Fab′2: 127 ng/µL
  Enzyme Activity Endpoint Assay (purified): Fc: 216 ng/µL
  Enzyme Activity Endpoint Assay (purified): IgG: 1090 ng/µL
  Enzyme Activity Endpoint Assay (purified): scIgG: 278 ng/µL
